In assay [1] the target is T1, extracellular domain of activin receptor type IIB (ActRIIBecd), biotinylated (Homo sapiens (Human), UniProt Q13705 27-117, amino-biotinylated with amine-PEG3-Biotin).
T1 construct: immobilised on a streptavidin-coated sensor chip; also called biotinylated ActRIIBecd; extracellular domain of ActRIIB
T1 sequence: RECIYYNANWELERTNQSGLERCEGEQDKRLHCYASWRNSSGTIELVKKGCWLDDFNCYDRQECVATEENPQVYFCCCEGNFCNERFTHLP
As to the kind of experiment: BIAcore SPR as Example 5 (method not restated); SD ±1.77 nM. The protocol: (§1) Biosensor experiments. In one embodiment, experiments were performed on a BIAcore™ T100/T200 instrument (Pharmacia Biosensor AB) in the multichannel mode (serial flow path involving flow cells 1+2+3+4). Flow rate was 10 μl/min; temperature was 25° C.; and data were recorded at 2.5 points/s. All four segments of a sensor chip CMS were coated with streptavidin (Sigma) to a density of 2000 pg/mm² (2000 resonance units) by the aminocoupling procedure. ActRIIBecd (10 mg) and amine-PEG3-Biotin (10 mg, Pierce, Rockford, Ill.) were dissolved in 200 μl H₂O and 10 mg NaCNBH₃ was added to prepare biotinylated ActRIIBecd. The reaction mixture was heated at 70° C. for 24 h, after that a further 10 mg NaCNBH₃ was added and the reaction was heated at 70° C. for another 24 h. After cooling to room temperature, the mixture was desalted with the spin column (3,000 molecular weight cut off (MWCO)). […] Sensograms were recorded during flow of the analyte (the ActRIIBecd-associated polypeptides (i.e., domains) as previously described) first through flow cell 1 (control) then through flow cell 2 (biotinylated ActRIIBecd). […] The sensograms obtained at 1.11, 3.33, 10, 30, and 90 nM analyte were evaluated for equilibrium binding, association rate, and dissociation rate by using the programs supplied with the instrument (BIA evaluation 2.1; Software Handbook. 1995; Pharmacia Biosensor AB).

The target in assay [2] is T1, extracellular domain of activin …. Nature of the assay: Mean KD column of Table 5; method not restated (BIAcore as Example 5); species also listed in Table 4. As for the experimental part: Biosensor experiments. In one embodiment, experiments were performed on a BIAcore™ T100/T200 instrument (Pharmacia Biosensor AB) in the multichannel mode (serial flow path involving flow cells 1+2+3+4). Flow rate was 10 μl/min; temperature was 25° C.; and data were recorded at 2.5 points/s. All four segments of a sensor chip CMS were coated with streptavidin (Sigma) to a density of 2000 pg/mm² (2000 resonance units) by the aminocoupling procedure. ActRIIBecd (10 mg) and amine-PEG3-Biotin (10 mg, Pierce, Rockford, Ill.) were dissolved in 200 μl H₂O and 10 mg NaCNBH₃ was added to prepare biotinylated ActRIIBecd. The reaction mixture was heated at 70° C. for 24 h, after that a further 10 mg NaCNBH₃ was added and the reaction was heated at 70° C. for another 24 h. After cooling to room temperature, the mixture was desalted with the spin column (3,000 molecular weight cut off (MWCO)). Biotinylated ActRIIBecd was collected, freeze-dried and used for streptavidin (SA) chip preparation. Amino-biotinylated ActRIIBecd was then immobilized independently on flow cells 2-4 for 10 minutes at a flow rate of 5 μL/min and a concentration of 20 μM in 10 mM sodium acetate, pH 4.0, at a density of 50-250 resonance units (RU). The stored polypeptides were dissolved in glycine buffer (2.5 g of glycine, 0.5 g of sucrose, 370 mg of L-glutamate, 10 mg of sodium chloride, and 10 mg of Tween 80 in 100 mL water, pH 4.5) to prepare 10 mg/mL solution and then diluted with previous glycine buffer to prepare analytes with various concentration. Sensograms were recorded during flow of the analyte (the ActRIIBecd-associated polypeptides (i.e., domains) as previously described) first through flow cell 1 (control) then through flow cell 2 (biotinylated ActRIIBecd). The sensogram obtained for flow cell 1 was subtracted from the sensogram obtained for flow cell 2. The sensograms obtained at 1.11, 3.33, 10, 30, and 90 nM analyte were evaluated for equilibrium binding, association rate, and dissociation rate by using the programs supplied with the instrument (BIA evaluation 2.1; Software Handbook. 1995; Pharmacia Biosensor AB).
On the technique in general: SPR reads the build-up and loss of mass on a sensor chip optically.

For assay [3] the target is unchanged. As to the kind of experiment: BIAcore SPR as Example 5 (method not restated); SD ±1.74 nM. The protocol:
as §1

Assay [4] shares this target. Nature of the assay: BIAcore SPR as Example 5 (method not restated); SD ±2.45 nM. The protocol:
as §1

Assay [5] shares this target. As to the kind of experiment: BIAcore SPR as Example 5 (method not restated); SD ±1.37 nM. The protocol: as §1
Assay [6] shares this target. As to the kind of experiment: BIAcore SPR as Example 5 (method not restated); SD ±1.72 nM. The protocol:
as §1

The target is the same in assay [7]. Nature of the assay: BIAcore SPR, biotinylated ActRIIBecd on chip; SD ±14.11 nM. The protocol:
as §1

The target is the same in assay [8]. As to the kind of experiment: BIAcore SPR as Example 5 (method not restated); SD ±1.07 nM. As for the experimental part:
as §1

For assay [9] the target is unchanged. As to the kind of experiment: BIAcore SPR as Example 5 (method not restated); SD ±2.10 nM. The protocol:
as §1

For assay [10] the target is unchanged. As to the kind of experiment: BIAcore SPR as Example 5 (method not restated); SD ±3.15 nM. The protocol:
as §1

Assay [11] shares this target. As to the kind of experiment: BIAcore SPR as Example 5 (method not restated); SD ±1.35 nM. The protocol:
as §1

As a reminder, the Kd is a measure of binding affinity in units of concentration. A low value points to higher affinity.

Numbering of substitutions follows the chain as printed. Bridges are numbered along the chain shown (N, C = ends).

B1: SEQ ID NO: 276, cysteine pairs C67-C71^a, C8-C41^b, C9-C43^b, C109-C109^b (designed binder)
chain: NSKIPKACCVPTELSAISMLYLDENEKVVLKNYQDMVVEGCGCRVDFSDVGWNDWIVAPPGYHAFYCHGECPFPLADHLNSTNHAIVQTLVNSVAQAKHKQRKRLKSSCKRHPLY
modifications: disulfides C67-C71 (intra), C8-C41 (inter), C9-C43 (inter), C109-C109 (inter)
notes: homodimer by intermolecular disulfide
As for B1, the Kd in assay [1] and in assay [2] was 8.13 nM each time.

B2: SEQ ID NO: 248, cysteine pairs C67-C71^a, C8-C41^a, C9-C43^a (designed binder)
chain: NSKDPKACCVPTELSAPSPLYLDENEKPVLKNYQDMVVHGCGCRVDFKDVGWNDHAVAPPGYHAFYCHGECPFPLADHLNSDNHAIVQTKVNSV
modifications: disulfides C67-C71 (intra), C8-C41 (intra), C9-C43 (intra)
Consider B2, for which the Kd in assay [2] and in assay [3] was 18.5 nM each time.

B3: SEQ ID NO: 268, cysteine pairs C23-C27^a, C65-C65^b, C79-C114^b, C80-C112^b (designed binder)
chain: VDFSDVGWNDWIVAPPGYHAFYCHGECPFPLADHLNSTNHAIVQTLVNSVAQAKHKQRKRLKSSCKRHPLYNSKIPKACCVPTELSAISMLYLDENEKVVLKNYQDMVVEGCGCR
modifications: disulfides C23-C27 (intra), C65-C65 (inter), C79-C114 (inter), C80-C112 (inter)
notes: as for B1
Consider B3, for which the Kd in assay [4] and in [2] was 8.03 nM each time.

B4: SEQ ID NO: 292, cysteine pairs C80-C114^a, C79-C112^a, C44-C48^a (designed binder)
chain: GQAKRKGYKRLKSSCKRHPLYVDFKDVGWNDHAVAPPGYHAFYCHGECPFPLADHLNSDNHAIVQTKVNSVNSKDPKACCVPTELSAPSPLYLDENEKPVLKNYQDMVVHGCGCR
modifications: disulfides C80-C114 (intra), C79-C112 (intra), C44-C48 (intra)
As to B4, the Kd in assay [2] and in [5] was 6.19 nM in each case.

B5: SEQ ID NO: 300, cysteine pairs C23-C79^a (designed binder)
chain: VDFKDVGWNDHAVAPPGYHAFYCHGECPFPLADHLNSDNHAIVQTKVNSVGQAKRKGYKRLKSSCKRHPLYNSKDPKACCVPTELSAPSPLYLDENEKPVLKNYQDMVVHGCGCR
modifications: disulfides C23-C79 (intra)
As for B5, the Kd in assay [4] and in assay [2] was 32.7 nM in each case.

B6: SEQ ID NO: 300, cysteine pairs C23-C27^a, C65-C65^b, C79-C112^b, C80-C114^b (designed binder)
chain: B5 chain
modifications: disulfides C23-C27 (intra), C65-C65 (inter), C79-C112 (inter), C80-C114 (inter)
notes: as for B1
On to B6, for which the dissociation constant (Kd) in assay [6] and in assay [2] was 6.44 nM in each case.

B7: SEQ ID NO: 188, cysteine pairs C44-C48^a (designed binder)
chain: AQAKHKQRKRLKSSCKRHPLYVDFSDVGWNDWIVAPPGYHAFYCHGECPFPLADHLNSTNHAIVQTLVNSV
modifications: disulfides C44-C48 (intra)
In the case of B7, the Kd in [6] and in [2] was 21.5 nM each time.

B8: Clone No. 27 domain (ActRIIBecd-associated polypeptide) (peptide)
chain: TYPASPKPMRWKMRSCACCAGGLRNRTGTV
B8 displayed a Kd in [7] of 49.3 nM.

B9: SEQ ID NO: 348, cysteine pairs C15-C15^b, C29-C62^a, C30-C64^a, C88-C92^a (designed binder)
chain: GQAKRKGYKRLKSSCKRHPLYNSKIPKACCVPTELSAISMLYLDENEKVVLKNYQDMVVEGCGCRVDFSDVGWNDWIVAPPGYHAFYCHGECPFPLADHLNSTNHAIVQTLVNSV
modifications: disulfides C15-C15 (inter), C29-C62 (intra), C30-C64 (intra), C88-C92 (intra)
notes: as for B1
As for B9, the Kd in [2] and in assay [8] was 5.1 nM in each case.

B10: SEQ ID NO: 254, cysteine pairs C23-C27^a, C58-C91^a, C59-C93^a (designed binder)
chain: VDFKDVGWNDHAVAPPGYHAFYCHGECPFPLADHLNSDNHAIVQTKVNSVNSKDPKACCVPTELSAPSPLYLDENEKPVLKNYQDMVVHGCGCR
modifications: disulfides C23-C27 (intra), C58-C91 (intra), C59-C93 (intra)
As for B10, the Kd in [2] and in [3] was 17.6 nM in each case.

B11: SEQ ID NO: 236, cysteine pairs C59-C59^b, C8-C41^a, C9-C43^a (designed binder)
chain: NSKDPKACCVPTELSAPSPLYLDENEKPVLKNYQDMVVHGCGCRGQAKRKGYKRLKSSCKRHPLY
modifications: disulfide 8-41, 9-43; also: homodimer via intermolecular C59-C59 disulfide
notes: as for B1
Regarding B11, the Kd in [2] and in assay [9] was 16.2 nM in each case.

B12: SEQ ID NO: 284, cysteine pairs C8-C9^a (designed binder)
chain: NSKIPKACCVPTELSAISMLYLDENEKVVLKNYQDMVVEGCGCRAQAKHKQRKRLKSSCKRHPLYVDFSDVGWNDWIVAPPGYHAFYCHGECPFPLADHLNSTNHAIVQTLVNSV
modifications: disulfides C8-C9 (intra)
Regarding B12, the Kd in assay [10] and in [2] was 31.8 nM each time.

B13: SEQ ID NO: 284, cysteine pairs C59-C59^b, C8-C43^a, C9-C41^a, C88-C92^a (designed binder)
chain: B12 chain
modifications: disulfides C59-C59 (inter), C8-C43 (intra), C9-C41 (intra), C88-C92 (intra)
notes: as for B1
For the molecule B13, the dissociation constant (Kd) in assay [2] and in [11] was 6.88 nM throughout.

B14: SEQ ID NO: 316, cysteine pairs C67-C71^a, C8-C41^a, C9-C43^a, C109-C109^b (designed binder)
chain: NSKDPKACCVPTELSAPSPLYLDENEKPVLKNYQDMVVHGCGCRVDFKDVGWNDHAVAPPGYHAFYCHGECPFPLADHLNSDNHAIVQTKVNSVGQAKRKGYKRLKSSCKRHPLY
modifications: disulfides C67-C71 (intra), C8-C41 (intra), C9-C43 (intra), C109-C109 (inter)
notes: as for B1
Turning to B14, the equilibrium dissociation constant (Kd) in [2] and in assay [5] was 5.34 nM in each case.

B15: Clone No. 15 domain (ActRIIBecd-associated polypeptide) (peptide)
chain: VDFSDVGWNDWIVAPPGYHAFYCHGECPFPLADHLNSTNHAIVQTLVNSV
Turning to B15, in assay [7], the Kd worked out at 39.5 nM.

B16: SEQ ID NO: 242, cysteine pairs C29-C30^a (designed binder)
chain: GQAKRKGYKRLKSSCKRHPLYNSKDPKACCVPTELSAPSPLYLDENEKPVLKNYQDMVVHGCGCR
modifications: disulfide 29-30
Turning to B16, the Kd in [10] and in assay [2] was 48.7 nM each time.

B17: SEQ ID NO: 260, cysteine pairs C79-C80^a (designed binder)
chain: AQAKHKQRKRLKSSCKRHPLYVDFSDVGWNDWIVAPPGYHAFYCHGECPFPLADHLNSTNHAIVQTLVNSVNSKIPKACCVPTELSAISMLYLDENEKVVLKNYQDMVVEGCGCR
modifications: disulfides C79-C80 (intra)
For B17, the Kd in assay [2] and in assay [11] was 29.1 nM throughout.

B18: SEQ ID NO: 260, cysteine pairs C80-C114^a, C79-C112^a, C44-C48^a (designed binder)
chain: B17 chain
modifications: disulfides C80-C114 (intra), C79-C112 (intra), C44-C48 (intra)
As for B18, the Kd in assay [2] and in assay [8] was 8.31 nM each time.

B19: SEQ ID NO: 324, cysteine pairs C15-C15^b, C80-C114^b, C79-C112^b, C44-C48^a (designed binder)
chain: B17 chain with S25K, W32H, I33A, T59D, L67K
modifications: disulfides C15-C15 (inter), C80-C114 (inter), C79-C112 (inter), C44-C48 (intra)
notes: as for B1
As for B19, the Kd in [1] and in assay [2] was 9.11 nM in each case.

B20: SEQ ID NO: 324, cysteine pairs C79-C80^a (designed binder)
chain: B17 chain with S25K, W32H, I33A, T59D, L67K
modifications: disulfides C79-C80 (intra)
For the molecule B20, the Kd in [2] and in assay [9] was 29.3 nM throughout.

For the origin of these results see patent publication US20190071480A1 (Biogen, published 2019).
